Eleven molecules from patent US20240254227A1 can be followed below.

For assay [1], the target named is murine CD300C-Fc (mouse). Put plainly: SPR (Carterra LSA), antibody immobilised, Fc fusion at 300 or 600 nM.
In assay [2] the target is CD300A/C/D/E/G (pool of five stable Freestyle HEK cell lines expressing huCD300A, huCD300C, huCD300D, huCD300E and huCD300G). Kind of assay: flow cytometry, pooled stable Freestyle HEK cells.
For assay [3], the target named is cynomolgus monkey CD300LB transiently expressed on HEK293 cells (cynomolgus monkey). Put plainly: flow cytometry, transfected HEK293, 10 ug/mL, isotype subtracted.
Assay [4] concerns the target murine CD300LB-Fc (mouse). Put plainly: SPR (Carterra LSA), antibody immobilised, Fc fusion at 300 or 600 nM.
Assay [5] has as its target huCD300F constitutively expressed on 293 Freestyle (Freestyle HEK) cells (human) (UniProt Q8TDQ1). Put plainly: flow cytometry, stable Freestyle HEK cells. In general terms: In flow cytometry, cells or beads pass a laser one at a time.
In assay [6] the target is recombinant human CD300LB overexpressed on Jurkat cells (human) (UniProt A8K4G0). Put plainly: flow cytometry, stable Jurkat cells, supernatant or 10 ug/mL, isotype subtracted.
Chain of recombinant human CD300LB overexpressed on Jurkat cells (human) (A8K4G0 18-201 limits assumed): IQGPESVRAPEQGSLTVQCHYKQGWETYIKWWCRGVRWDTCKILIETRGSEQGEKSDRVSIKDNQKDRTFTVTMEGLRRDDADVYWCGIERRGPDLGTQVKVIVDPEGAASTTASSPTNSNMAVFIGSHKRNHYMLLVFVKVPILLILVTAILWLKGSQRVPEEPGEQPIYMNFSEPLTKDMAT

Chain of cynomolgus monkey CD300LB transiently expressed on HEK293 cells (cynomolgus monkey) (chain, as listed by the source limits assumed, form in doubt): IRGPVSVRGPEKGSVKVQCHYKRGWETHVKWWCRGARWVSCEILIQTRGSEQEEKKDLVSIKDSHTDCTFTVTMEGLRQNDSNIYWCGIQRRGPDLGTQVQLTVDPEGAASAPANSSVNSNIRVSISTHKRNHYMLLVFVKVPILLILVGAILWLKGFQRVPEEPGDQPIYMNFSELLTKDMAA
Chain of murine CD300C-Fc (mouse) (chain, as listed by the source limits assumed): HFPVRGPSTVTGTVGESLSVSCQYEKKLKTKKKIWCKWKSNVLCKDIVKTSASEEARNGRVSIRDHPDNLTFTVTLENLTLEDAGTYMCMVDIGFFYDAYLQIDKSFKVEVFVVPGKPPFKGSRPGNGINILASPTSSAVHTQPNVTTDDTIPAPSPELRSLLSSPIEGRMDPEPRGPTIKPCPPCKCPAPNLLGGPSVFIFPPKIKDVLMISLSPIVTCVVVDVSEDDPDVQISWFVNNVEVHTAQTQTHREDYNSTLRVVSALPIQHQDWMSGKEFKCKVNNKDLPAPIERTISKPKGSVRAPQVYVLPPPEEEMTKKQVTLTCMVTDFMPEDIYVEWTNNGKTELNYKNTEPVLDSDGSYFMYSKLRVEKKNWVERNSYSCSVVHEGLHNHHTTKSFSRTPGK
Chain of murine CD300LB-Fc (mouse) (chain, as listed by the source limits assumed): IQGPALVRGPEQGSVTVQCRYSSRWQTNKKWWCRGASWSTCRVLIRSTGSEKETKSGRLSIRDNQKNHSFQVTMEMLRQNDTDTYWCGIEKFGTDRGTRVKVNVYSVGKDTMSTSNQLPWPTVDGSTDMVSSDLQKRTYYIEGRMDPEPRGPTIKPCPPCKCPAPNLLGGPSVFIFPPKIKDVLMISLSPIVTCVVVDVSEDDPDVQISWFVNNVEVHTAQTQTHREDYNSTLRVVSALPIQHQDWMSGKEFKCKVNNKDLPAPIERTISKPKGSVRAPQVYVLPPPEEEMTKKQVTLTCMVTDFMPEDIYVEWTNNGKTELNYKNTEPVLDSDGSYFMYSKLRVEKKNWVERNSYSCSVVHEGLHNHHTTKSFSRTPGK
Chain of huCD300F constitutively expressed on 293 Freestyle (Freestyle HEK) cells (human) (Q8TDQ1 other isoform, or with tags, fused parts or gaps): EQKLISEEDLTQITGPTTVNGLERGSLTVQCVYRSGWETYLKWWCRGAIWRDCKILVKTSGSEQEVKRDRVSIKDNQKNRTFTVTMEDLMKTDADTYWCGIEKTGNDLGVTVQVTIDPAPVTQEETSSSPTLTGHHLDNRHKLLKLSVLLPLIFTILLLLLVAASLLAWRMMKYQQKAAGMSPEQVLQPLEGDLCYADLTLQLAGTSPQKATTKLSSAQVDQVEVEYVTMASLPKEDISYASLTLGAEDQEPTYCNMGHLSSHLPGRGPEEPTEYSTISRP

B1: anti-CD300LB antibody CD-10 (antibody, V domains shown)
VH: QVQLQQSGPELVRPGVSVKISCKGSGYTFTDYAMHWVKQSHVRSREWIGVIGTYNGHTNYNQKFKGKATMTVDKSSSTAYLELARLTSEDSAIYYCARSGSYYYSMDYWGQGTSVTVSS
VL: QIVLTQSPAIMSASPGEKVTMTCSASSSVNYMHWYQQKSGTSPKRWIYDTSKLSSGVPARFSGSGSGTSYSLTISTMEAEDAATYYCQQWSSNPPMTFGGGTKLEIK
In assay [1], B1 had an SPR binding (control subtracted) of 11.8.

B2: anti-CD300LB antibody CD-05 (antibody, V domains shown)
VH: QVQLVQSGAEVKKPGASVKVSCKASGYTFSRYYINWVRQAPGQGLEWMGWINPNSGGTNYAQKFQGRVTMTRDTSTSTVYMELSSLRSEDTAVYYCTTDQLRFGKTGPYYGMDVWGQGTTVTVSS
VL: DIQMTQSPSSLSASVGDRVTITCRASQNIGTYLNWYQQKPGKAPKLLIYAASSLQSGVPSRFSGSGSGTDFTLTISSLQPEDFATYYCQQSYSDTLTFGGGTKVEIK
As to B2, the gMFI in assay [2] is 2510 gMFI; in assay [3], -62.5 gMFI. In assay [4], this molecule returned an SPR binding (control subtracted) of 3.65.

B3: anti-CD300LB antibody CD-09 (antibody, V domains shown)
VH: QVQLVQSGAEVKKPGASVKVSCKASGYTFTTYAVHWVRQAPGQGLEWMGIINPNSGGTNYAQKFQGRVTMTRDTSTSTVYMELSSLRSEDTAVYYCARDIVPMNNFYNYYYGMDVWGQGTTVTVSS
VL: DIQMTQSPSSLSASVGDRVTITCRASQSISSYLNWYQQKPGKAPKLLIYATSTLQSGVPSRFSGSGSGTDFTLTISSLQPEDFATYYCQQSYRIPYTFGQGTKVEIK
With B3, the gMFI is -25.5 gMFI in assay [2] and -19.5 gMFI in assay [3].

B4: anti-CD300LB antibody CD-07 (antibody, V domains shown)
VH: QVQLVQSGAEVKKPGASVKVSCKASGYTFTNYRMHWVRQAPGQGLEWMGWINPNSGGTIYAQKFQGRVTMTRDTSTSTVYMELSSLRSEDTAVYYCARDLDYWGQGTLVTVSS
VL: DIQMTQSPSSLSASVGDRVTITCQASQDISNYLNWYQQKPGKAPKLLIYGASSLQSGVPSRFSGSGSGTDFTLTISSLQPEDFATYYCQQSYSTPWTFGPGTKVEIK
As for B4, the gMFI in assay [2] came out at 42.5 gMFI; in assay [3], 39 gMFI.

B5: anti-CD300LB antibody CD-06 (antibody, V domains shown)
VH: QVQLVQSGAEVKKPGASVKVSCKASGYTFTTYAVHWVRQAPGQGLEWMGIVNPNSGGTNYAQKFQGRVTMTRDTSTSTVYMELSSLRSEDTAVYYCARDIVPMNNFYNYYYGMDVWGQGTTVTVSS
VL: DIQMTQSPSSLSASVGDRVTITCRASQSISSYLNWYQQKPGKAPKLLIYATSTLQSGVPSRFSGSGSGTDFTLTISSLQPEDFATYYCQQSYRIPYTFGQGTKVEIK
For the molecule B5, the gMFI in assay [2] was 779 gMFI; in assay [3] it was -51 gMFI.

B6: anti-CD300LB antibody CD-01 (antibody, V domains shown)
VH: RVQLQQSGAELVRPGASVTLSCKASGFTFTDFEMHWVKKTPVHGLEWIGAIDPESGNTAYNQKFRGKATLTADKSSSTAYMELRYLTSEDSAVYYCTPLISGADYWGQGTTLTVSS
VL: DVVMTQSPLSLPVSLGDQASISCRSSQSLVHSDGNTYLYWYLQKPGQSPKLLIYKVSNRFSGVPDRFSGSGSGTDFTFKISRVGAEDLGVYFCSQSTHVPWTFGGGTKLEII
Regarding B6, the gMFI in assay [2] was -21.5 gMFI; in assay [3], 190 gMFI.

B7: anti-CD300LB antibody CD-04 (antibody, V domains shown)
VH: QVQLQQSGAELVRPGASVTLSCRASGYTFTDFEMHWVKQTPLHGLEWIGAIAPETGGTAYNQKFKGKAILTADKSSSTAYVELRSLTSEDSAVYFCTRLGGMDYWGQGTSVTVSS
VL: DVVMTQTPLSLPVSLGDQASISCRSSQTLVHNNGNTYLYWYLQKPGQSPKLLIYQVSNRFFGVPDRFSGSGSGTDFTLKISRVEAEDLGLYFCSQSTHVPWTFGGGTKLEIK
Turning to B7, the results for the gMFI in assay [5], in assay [2] and in assay [3] were 163 gMFI, 52.5 gMFI and 72.2 gMFI, respectively.

B8: anti-CD300LB antibody CD-08 (antibody, V domains shown)
VH: EVQLLESGGGLVQPGGSLRLSCAASGFTFSNAWMSWVRQAPGKGLEWVSVISGSGGRTYYADSVKGRFTISRDNSKNTLYLQMNSLRAEDTAVYYCARDGTTVAPKGMDVWGQGTTVTVSS
VL: DIQMTQSPSSLSASVGDRVTITCQASQDINNYVNWYQQKPGKAPKLLIYAASNLQSGVPSRFSGSGSGTDFTLTISSLQPEDFATYYCQQSYSPPYTFGQGTKLEIK
As to B8, the gMFI was 166 gMFI in assay [2] and -43.5 gMFI in assay [3].

B9: anti-CD300LB antibody CD-11 (antibody, V domains shown)
VH: QIQLVQSGPEVKKPGETVKISCKASGYTLTDYSMHWVMQTPGTGLKWMAWMNTETGEPTYADDFKGRFAFSLETSAGTAYLQIDNLKNEDTATYFCATYGKSYGMKYWGQGTSVTVSS
VL: DIVLTQSPPSLAVSLGQRATISCRATKSVSPYLHWYQQTPGQPPKLLIYLASNLDSGVPARFSGSGSGTDFTLNIHPVEEEDAATYYCQHNKELPPTFGGGTRLEIK
As to B9, in assay [1], the SPR binding (control subtracted) is 37.8.

B10: anti-CD300LB antibody CD-15 (antibody, V domains shown)
VH: QIQLVQSGPELKKPGETVKISCQVSGYTFTDYSMHWLKQAPGKGLKWMAWINTETGESTYTDEFKGRFVFSLETSVRTAYLKINNLKNEDTATYFCGTYGSSYGMAYWGQGTSVTVSS
VL: DIVLTQSPASLPVSLGQRATISCRASKSVSTSGSSYLHWYQQKPGQPPKLLIYLASKLESGVPARFRGSGSGTDFTLNIHPVEEEDAATYYCQHNREVPPTFGGGTKLEIK
As for B10, the gMFI in assay [6] worked out at 22 gMFI.

B11: anti-CD300LB antibody CD-16 (antibody, V domains shown)
VH: QIQLVQSGPELKKPGETVKISCKASGYTFTDYSMHWVKQAPGKGLKWMAWINTETGEPTYADDFRGRFAFSLETSGRTAYLEINNLRNEDTATYFCVTYGSSYGMAYWGQGTSVTVSS
VL: DIVLTQSPASLAVSLGQRATISCRASKSVSRSGYSYLHWYQQKPGQPPKLLIYLASKLESGVPARFSGSGSGTDFTLNIHPVEAEDAATYYCQHNREIPPTFGGGTKLEIK
As to B11, in assay [6], the gMFI is 31 gMFI.
